Assay results from the supplement of paper PMC10724198.
± gives the standard deviation of the averaged measurements.

Assays:
Saccharomyces cerevisiae [1] = test: protein stability index of tFT-peptide fusion (C-terminal peptide) (PSI (0-1 scale)); higher = more stable (slower turnover); details: genetic background: wild type; temperature: 30 C
Saccharomyces cerevisiae [2] = test: as above
Description: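 MPS profiling in S. cerevisiae of the tFT-X12 degron library: putative degron peptides plus stable controls, 12 aa, fused to the C-terminus of a sfGFP-mCherry timer. Cells are FACS-sorted into 8 mCherry/sfGFP bins and deep-sequenced. PSI runs from 0 (unstable) to 1 (stable). Backgrounds are wild type, das1Δ and doa10Δ at 30 °C, and wild type, das1Δ, cdc34-1 and cdc53-1 at 37 °C; 2-3 technical replicates each.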

[3] = genetic background: cdc34-1, temperature: 37 C
[4] = genetic background: cdc53-1, temperature: 37 C
[5] = genetic background: das1 deletion, temperature: 30 C
[6] = genetic background: das1 deletion, temperature: 37 C
[7] = genetic background: doa10 deletion, temperature: 30 C
[8] = genetic background: wild type, temperature: 30 C
[9] = genetic background: wild type, temperature: 37 C
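Further: PSI is a weighted mean of sequencing reads over stability bins, variants kept only with over 10 reads, mCherry proximal and sfGFP distal, peptide attached via GGGS linker.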

RWSEHGFLVFLS
protein stability index (Saccharomyces cerevisiae [1]): 0.301 ± 0.021
protein stability index (Saccharomyces cerevisiae [2]; [3]): 0.643 ± 0.022
protein stability index (Saccharomyces cerevisiae [2]; [4]): 0.736 ± 0.012
protein stability index (Saccharomyces cerevisiae [2]; [5]): 0.664 ± 0.016
protein stability index (Saccharomyces cerevisiae [2]; [6]): 0.7408 ± 0.0018
protein stability index (Saccharomyces cerevisiae [2]; [7]): 0.156 ± 0.015
protein stability index (Saccharomyces cerevisiae [2]; [8]): 0.158 ± 0.015
protein stability index (Saccharomyces cerevisiae [2]; [9]): 0.373 ± 0.04

SARSYLTERLLA
protein stability index (Saccharomyces cerevisiae [1]): 0.252 ± 0.0087
protein stability index (Saccharomyces cerevisiae [2]; [3]): 0.6255 ± 0.0024
protein stability index (Saccharomyces cerevisiae [2]; [4]): 0.714 ± 0.016
protein stability index (Saccharomyces cerevisiae [2]; [5]): 0.599 ± 0.021
protein stability index (Saccharomyces cerevisiae [2]; [6]): 0.721 ± 0.022
protein stability index (Saccharomyces cerevisiae [2]; [7]): 0.13 ± 0.018
protein stability index (Saccharomyces cerevisiae [2]; [8]): 0.162 ± 0.022
protein stability index (Saccharomyces cerevisiae [2]; [9]): 0.239 ± 0.0068

SASPFYLPPPPV
protein stability index (Saccharomyces cerevisiae [1]): 0.735 ± 0.024
protein stability index (Saccharomyces cerevisiae [2]; [3]): 0.709 ± 0.024
protein stability index (Saccharomyces cerevisiae [2]; [4]): 0.7371 ± 0.0058
protein stability index (Saccharomyces cerevisiae [2]; [5]): 0.679 ± 0.043
protein stability index (Saccharomyces cerevisiae [2]; [6]): 0.735 ± 0.017
protein stability index (Saccharomyces cerevisiae [2]; [7]): 0.675 ± 0.018
protein stability index (Saccharomyces cerevisiae [2]; [8]): 0.671 ± 0.023
protein stability index (Saccharomyces cerevisiae [2]; [9]): 0.731 ± 0.012

SAVLFLLFVYVR
protein stability index (Saccharomyces cerevisiae [1]): 0.254 ± 0.0093
protein stability index (Saccharomyces cerevisiae [2]; [3]): 0.0536 ± 0.0084
protein stability index (Saccharomyces cerevisiae [2]; [4]): 0.081 ± 0.012
protein stability index (Saccharomyces cerevisiae [2]; [5]): 0.156 ± 0.026
protein stability index (Saccharomyces cerevisiae [2]; [6]): 0.234 ± 0.011
protein stability index (Saccharomyces cerevisiae [2]; [7]): 0.1678 ± 0.00051
protein stability index (Saccharomyces cerevisiae [2]; [8]): 0.14 ± 0.046
protein stability index (Saccharomyces cerevisiae [2]; [9]): 0.176 ± 0.023

SCIFVSSYFFVF
protein stability index (Saccharomyces cerevisiae [1]): 0.251 ± 0.02
protein stability index (Saccharomyces cerevisiae [2]; [3]): 0.417 ± 0.0029
protein stability index (Saccharomyces cerevisiae [2]; [4]): 0.465 ± 0.057
protein stability index (Saccharomyces cerevisiae [2]; [5]): 0.364 ± 0.025
protein stability index (Saccharomyces cerevisiae [2]; [6]): 0.506 ± 0.012
protein stability index (Saccharomyces cerevisiae [2]; [7]): 0.179 ± 0.0043
protein stability index (Saccharomyces cerevisiae [2]; [8]): 0.18 ± 0.02
protein stability index (Saccharomyces cerevisiae [2]; [9]): 0.307 ± 0.00077

SCLRVYFSVVVS
protein stability index (Saccharomyces cerevisiae [1]): 0.359 ± 0.031
protein stability index (Saccharomyces cerevisiae [2]; [3]): 0.231 ± 0.013
protein stability index (Saccharomyces cerevisiae [2]; [4]): 0.295 ± 0.048
protein stability index (Saccharomyces cerevisiae [2]; [5]): 0.286 ± 0.037
protein stability index (Saccharomyces cerevisiae [2]; [6]): 0.389 ± 0.015
protein stability index (Saccharomyces cerevisiae [2]; [7]): 0.258 ± 0.0076
protein stability index (Saccharomyces cerevisiae [2]; [8]): 0.288 ± 0.017
protein stability index (Saccharomyces cerevisiae [2]; [9]): 0.36 ± 0.027

SCLSLALLVFFG
protein stability index (Saccharomyces cerevisiae [1]): 0.411 ± 0.061
protein stability index (Saccharomyces cerevisiae [2]; [3]): 0.442 ± 0.014
protein stability index (Saccharomyces cerevisiae [2]; [4]): 0.524 ± 0.031
protein stability index (Saccharomyces cerevisiae [2]; [5]): 0.36 ± 0.019
protein stability index (Saccharomyces cerevisiae [2]; [6]): 0.523 ± 0.014
protein stability index (Saccharomyces cerevisiae [2]; [7]): 0.315 ± 0.0051
protein stability index (Saccharomyces cerevisiae [2]; [8]): 0.349 ± 0.02
protein stability index (Saccharomyces cerevisiae [2]; [9]): 0.515 ± 0.039

SFFFSFFPYFFC
protein stability index (Saccharomyces cerevisiae [1]): 0.4425 ± 0.0029
protein stability index (Saccharomyces cerevisiae [2]; [3]): 0.6386 ± 0.0014
protein stability index (Saccharomyces cerevisiae [2]; [4]): 0.675 ± 0.02
protein stability index (Saccharomyces cerevisiae [2]; [5]): 0.606 ± 0.06
protein stability index (Saccharomyces cerevisiae [2]; [6]): 0.732 ± 0.023
protein stability index (Saccharomyces cerevisiae [2]; [7]): 0.401 ± 0.012
protein stability index (Saccharomyces cerevisiae [2]; [8]): 0.394 ± 0.017
protein stability index (Saccharomyces cerevisiae [2]; [9]): 0.561 ± 0.015

SFTVFVVLLFPP
protein stability index (Saccharomyces cerevisiae [1]): 0.323 ± 0.062
protein stability index (Saccharomyces cerevisiae [2]; [3]): 0.311 ± 0.021
protein stability index (Saccharomyces cerevisiae [2]; [4]): 0.437 ± 0.05
protein stability index (Saccharomyces cerevisiae [2]; [5]): 0.284 ± 0.032
protein stability index (Saccharomyces cerevisiae [2]; [6]): 0.476 ± 0.024
protein stability index (Saccharomyces cerevisiae [2]; [7]): 0.288 ± 0.013
protein stability index (Saccharomyces cerevisiae [2]; [8]): 0.304 ± 0.0095
protein stability index (Saccharomyces cerevisiae [2]; [9]): 0.4293 ± 0.00063

SFVGCWFVLLVR
protein stability index (Saccharomyces cerevisiae [1]): 0.179 ± 0.036
protein stability index (Saccharomyces cerevisiae [2]; [3]): 0.0307 ± 0.0085
protein stability index (Saccharomyces cerevisiae [2]; [4]): 0.0395 ± 0.0077
protein stability index (Saccharomyces cerevisiae [2]; [5]): 0.138 ± 0.024
protein stability index (Saccharomyces cerevisiae [2]; [6]): 0.235 ± 0.003
protein stability index (Saccharomyces cerevisiae [2]; [7]): 0.193 ± 0.0003
protein stability index (Saccharomyces cerevisiae [2]; [8]): 0.122 ± 0.025
protein stability index (Saccharomyces cerevisiae [2]; [9]): 0.159 ± 0.0049
